The results in this text go back to patent publication US20240092836A1.

The target in the assay is Recombinant Human CTLA4-Fc chimera (R&D systems) (human) (UniProt P16410). Nature of the assay: ELISA, signal over SA. Background: ELISA stands for enzyme-linked immunosorbent assay.
In the case of GGCMHPSLPIWSWHFCPH (peptide, not shown: large carriers; small tags and cut ends) [C4m3127-4th-NNS6-19], the ELISA S/N(SA) is 4.1.

On to GGCSHPYLPIHSRHFCLS (peptide, not shown: large carriers; small tags and cut ends) [C4m3127-4th-NNS6-70], for which the ELISA S/N(SA) stood at 4.6.

With GGCLHPFLPIVSIHFCSA (peptide, not shown: large carriers; small tags and cut ends) [C4m#19-5th2w-NNS6-26], the ELISA S/N(SA) worked out at 5.8.

Regarding GGCLHPFLPIRSVHFCLR (peptide, not shown: large carriers; small tags and cut ends) [C4m3127-4th-NNS6-79], the ELISA S/N(SA) was found to be 12.8.

Take GGCAHPYLPIRSVHFCPC (peptide, not shown: large carriers; small tags and cut ends) [C4m#19-5th2w-NNS6-28]: the ELISA S/N(SA) is 6.3.

Regarding GGCWHPWLPIKSPHFCAL (peptide, not shown: large carriers; small tags and cut ends) [C4m#19-5th2w-NNS6-75], the ELISA S/N(SA) is 15.3.

For GGCWHPFLPIKSVHFCCA (peptide, not shown: large carriers; small tags and cut ends) [C4m#19-5th4w-NN6-75], the ELISA S/N(SA) was found to be 5.6.

On to GGCWHPYLPIQSLHFCPF (peptide, not shown: large carriers; small tags and cut ends) [C4m#19-5th4w-NN6-5-1], for which the ELISA S/N(SA) is 14.7.

Consider GGCSHPFLPIFSLHFCPV (peptide, not shown: large carriers; small tags and cut ends) [C4m#19-5th4w-NN6-38], for which the ELISA S/N(SA) was 16.6.

As for GGCLHPYLPIVSSHFCPF (peptide, not shown: large carriers; small tags and cut ends) [C4m3127-4th-NNS6-64], the ELISA S/N(SA) stood at 12.9.

Regarding GGCVHPALPIWSFHFCPS (peptide, not shown: large carriers; small tags and cut ends) [C4m#19-5th4w-NN6-46-1], the ELISA S/N(SA) turned out to be 14.2.

Turning to GGCRHPFLPIRSPHFCGS (peptide, not shown: large carriers; small tags and cut ends) [C4m3127-4th-NNS6-7], the ELISA S/N(SA) came to 4.7.

As for GGCWHPFLPIRSVHFCCR (peptide, not shown: large carriers; small tags and cut ends) [C4m#19-5th4w-NN6-14], the ELISA S/N(SA) is 16.1.

With GGCSHPFLPIRSRHFCPF (peptide, not shown: large carriers; small tags and cut ends) [C4m3127-4th-NNS6-12], the ELISA S/N(SA) came to 15.8.

For the molecule GGCAHPHLPIRSVHFCSF (peptide, not shown: large carriers; small tags and cut ends) [C4m3127-4th-NNS6-66], the ELISA S/N(SA) was 4.8.

For the molecule GGCCHPWLPIRSVHFCPF (peptide, not shown: large carriers; small tags and cut ends) [C4m#19-5th2w-NNS6-61], the ELISA S/N(SA) is 4.3.

Turning to GGCWHPFLPIMSFHFCPY (peptide, not shown: large carriers; small tags and cut ends) [C4m#19-5th4w-NN6-30], the ELISA S/N(SA) is 16.7.

With GGCLHPFLPILSLHFCPF (peptide, not shown: large carriers; small tags and cut ends) [C4m3127-4th-NNS6-20], the ELISA S/N(SA) was found to be 4.4.

With GGCGHPFLPIFSSHFCPL (peptide, not shown: large carriers; small tags and cut ends) [C4m3127-4th-NNS6-85], the ELISA S/N(SA) came out at 9.1.

As for GGCLHPFLPIYSLHFCPC (peptide, not shown: large carriers; small tags and cut ends) [C4m#19-5th4w-NN6-94], the ELISA S/N(SA) was 5.

For the molecule GGCMHPFLPIKSSHFCRK (peptide, not shown: large carriers; small tags and cut ends) [C4m#19-5th4w-NN6-6], the ELISA S/N(SA) turned out to be 16.1.

On to GGCMHPFLPIISQHFCAF (peptide, not shown: large carriers; small tags and cut ends) [C4m#19-5th4w-NN6-89], for which the ELISA S/N(SA) stood at 8.3.

Consider GGCWHPSLPIYSPHFCPL (peptide, not shown: large carriers; small tags and cut ends) [C4m3127-4th-NNS6-2], for which the ELISA S/N(SA) was determined as 12.8.

As to GGCRHPFLPIVSLHFCPF (peptide, not shown: large carriers; small tags and cut ends) [C4m#19-5th2w-NNS6-51], the ELISA S/N(SA) is 15.8.

On to GGCFHPWLPIASWHFCGR (peptide, not shown: large carriers; small tags and cut ends) [C4m3127-4th-NNS6-48], for which the ELISA S/N(SA) stood at 13.5.

GGCWHPFLPIVSFHFCPF (peptide, not shown: large carriers; small tags and cut ends) [C4m#19-5th2w-NNS6-84]: the ELISA S/N(SA) worked out at 6.4.

As to GGCLHPWLPIRSFHFCGA (peptide, not shown: large carriers; small tags and cut ends) [C4m#19-5th2w-NNS6-53], the ELISA S/N(SA) came to 11.4.

On to GGCRHPVLPIWSSHFCPW (peptide, not shown: large carriers; small tags and cut ends) [C4m3127-4th-NNS6-94], for which the ELISA S/N(SA) was 5.9.

Turning to GGCRHPWLPIWSVHFCGV (peptide, not shown: large carriers; small tags and cut ends) [C4m#19-5th4w-NN6-45], the ELISA S/N(SA) is 15.8.

Consider GGCAHPALPIWSCHFCPF (peptide, not shown: large carriers; small tags and cut ends) [C4m3127-4th-NNS6-26], for which the ELISA S/N(SA) turned out to be 7.1.

Regarding GGCWHPYLPIFSVHFCPR (peptide, not shown: large carriers; small tags and cut ends) [C4m3127-4th-NNS6-16], the ELISA S/N(SA) amounted to 16.5.

GGCLHPLLPILSVHFCPS (peptide, not shown: large carriers; small tags and cut ends) [C4m#19-5th4w-NN6-83]: the ELISA S/N(SA) was found to be 12.

On to GGCWHPFLPIFSAHFCMR (peptide, not shown: large carriers; small tags and cut ends) [C4m3127-4th-NNS6-89], for which the ELISA S/N(SA) stood at 6.6.

Regarding GGCWHPCLPILSPHFCPR (peptide, not shown: large carriers; small tags and cut ends) [C4m3127-4th-NNS6-30], the ELISA S/N(SA) was determined as 7.5.

GGCWHPVLPIRSVHFCCR (peptide, not shown: large carriers; small tags and cut ends) [C4m#19-5th4w-NN6-64]: the ELISA S/N(SA) was 13.7.

Turning to GGCLHPYLPIFSVHFCAL (peptide, not shown: large carriers; small tags and cut ends) [C4m#19-5th2w-NNS6-87], the ELISA S/N(SA) came out at 4.5.

For the molecule GGCRHPFLPIWSSHFCAA (peptide, not shown: large carriers; small tags and cut ends) [C4m#19-5th2w-NNS6-43], the ELISA S/N(SA) is 4.8.

Turning to GGCRHPYLPIFSAHFCRS (peptide, not shown: large carriers; small tags and cut ends) [C4m#19-5th4w-NN6-1], the ELISA S/N(SA) came out at 16.1.

GGCFHPYLPIWSLHFCRS (peptide, not shown: large carriers; small tags and cut ends) [C4m#19-5th2w-NNS6-86]: the ELISA S/N(SA) was 7.7.

For the molecule GGCFHPFLPIYSWHFCAR (peptide, not shown: large carriers; small tags and cut ends) [C4m#19-5th4w-NN6-74], the ELISA S/N(SA) was 15.1.

GGCWHPWLPIVSVHFCGC (peptide, not shown: large carriers; small tags and cut ends) [C4m#19-5th4w-NN6-72]: the ELISA S/N(SA) was found to be 4.6.

With GGCWHPFLPILSWHFCGR (peptide, not shown: large carriers; small tags and cut ends) [C4m#19-5th2w-NNS6-30], the ELISA S/N(SA) stood at 9.

On to GGCCHPFLPIYSVHFCAS (peptide, not shown: large carriers; small tags and cut ends) [C4m#19-5th2w-NNS6-34], for which the ELISA S/N(SA) amounted to 5.

For GGCWHPFLPISSWHFCGL (peptide, not shown: large carriers; small tags and cut ends) [C4m3127-4th-NNS6-60], the ELISA S/N(SA) turned out to be 11.9.

As for GGCFHPFLPIFSYHFCGL (peptide, not shown: large carriers; small tags and cut ends) [C4m#19-5th2w-NNS6-46], the ELISA S/N(SA) was determined as 6.1.

Take GGCWHPYLPILSLHFCQR (peptide, not shown: large carriers; small tags and cut ends) [C4m#19-5th2w-NNS6-6]: the ELISA S/N(SA) turned out to be 10.3.

Consider GGCWHPFLPILSLHFCSR (peptide, not shown: large carriers; small tags and cut ends) [C4m#19-5th4w-NN6-65], for which the ELISA S/N(SA) came out at 12.5.

Turning to GGCRHPFLPIFSLHFCAR (peptide, not shown: large carriers; small tags and cut ends) [C4m#19-5th2w-NNS6-8], the ELISA S/N(SA) was 16.5.

As for GGCWHPYLPILSRHFCQA (peptide, not shown: large carriers; small tags and cut ends) [C4m#19-5th4w-NN6-63], the ELISA S/N(SA) came to 16.5.

In the case of GGCRHPFLPIWSVHFCWR (peptide, not shown: large carriers; small tags and cut ends) [C4m#19-5th2w-NNS6-45], the ELISA S/N(SA) worked out at 11.

Take GGCFHPFLPIRSCHFCAR (peptide, not shown: large carriers; small tags and cut ends) [C4m#19-5th2w-NNS6-27]: the ELISA S/N(SA) was 9.9.

Consider GGCRHPFLPIFSVHFCPF (peptide, not shown: large carriers; small tags and cut ends) [C4m#19-5th2w-NNS6-66], for which the ELISA S/N(SA) was determined as 4.4.

As for GGCRHPFLPIVSRHFCVA (peptide, not shown: large carriers; small tags and cut ends) [C4m#19-5th2w-NNS6-79], the ELISA S/N(SA) was determined as 9.2.

In the case of GGCLHPWLPIVSCHFCPR (peptide, not shown: large carriers; small tags and cut ends) [C4m#19-5th2w-NNS6-68], the ELISA S/N(SA) was 4.6.

Turning to GGCIHPFLPIWSIHFCSR (peptide, not shown: large carriers; small tags and cut ends) [C4m#19-5th2w-NNS6-37], the ELISA S/N(SA) is 9.4.

Take GGCWHPFLPILSLHFCGW (peptide, not shown: large carriers; small tags and cut ends) [C4m#19-6th4w-NN6-5-3]: the ELISA S/N(SA) turned out to be 14.7.

Turning to GGCMHPFLPIRSWHFCSR (peptide, not shown: large carriers; small tags and cut ends) [C4m#19-5th2w-NNS6-74], the ELISA S/N(SA) turned out to be 7.

For the molecule GGCFHPWLPISSLHFCPF (peptide, not shown: large carriers; small tags and cut ends) [C4m#19-5th2w-NNS6-4], the ELISA S/N(SA) worked out at 6.3.

As to GGCRHPFLPIWSFHFCWG (peptide, not shown: large carriers; small tags and cut ends) [C4m#19-5th2w-NNS6-33], the ELISA S/N(SA) is 9.4.

As to GGCRHPFLPIVSWHFCAA (peptide, not shown: large carriers; small tags and cut ends) [C4m#19-5th2w-NNS6-70], the ELISA S/N(SA) was 5.1.

GGCPHPMLPIFSVHFCPY (peptide, not shown: large carriers; small tags and cut ends) [C4m#19-5th4w-NN6-61]: the ELISA S/N(SA) is 5.9.

As to GGCGHPFLPIFSLHFCPR (peptide, not shown: large carriers; small tags and cut ends) [C4m3127-4th-NNS6-80], the ELISA S/N(SA) turned out to be 12.8.

Turning to GGCSHPFLPIWSVHFCGQ (peptide, not shown: large carriers; small tags and cut ends) [C4m3127-4th-NNS6-3], the ELISA S/N(SA) turned out to be 10.9.

Regarding GGCRHPYLPIWSAHFCCR (peptide, not shown: large carriers; small tags and cut ends) [C4m#19-5th4w-NN6-36], the ELISA S/N(SA) came to 5.7.
